Paper PMC11398408 (bioRxiv, 2024)

Target: UBE2D1 (UniProt P51668 1-147)
Test: ITC

Sequence of UBE2D1 (P51668 whole entry): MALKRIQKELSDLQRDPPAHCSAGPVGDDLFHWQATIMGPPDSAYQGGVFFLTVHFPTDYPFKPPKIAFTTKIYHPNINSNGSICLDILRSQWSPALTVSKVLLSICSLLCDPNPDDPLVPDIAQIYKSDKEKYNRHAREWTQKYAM

Binder	Kd [µM]	stoichiometry N
RING-UBL (designed binder) SLTAQQSSLIREDKSNAKLWNEVLASLKDRPASGSPFQLFLSKVEETFQCICCQELVFRPITTVCQHNVCKDCLDRSFRAQVFSCPACRYDLGRSYAMQVNQPLQTVLNQLFPGYGNGRGGSSGGSSGGSSGGSSMWIQVRTMDGRQTHTVDSLSRLTKVEELRRKIQELFHVEPGLQRLFYRGKQMEDGHTLFDYEVRLNDTIQLLVRQS	3.1 ± 0.7	~1
UBOX-UBL (designed binder) AEIDYSDAPDEFRDPIMDTLMTDPVRLPSGTVMDRSIILRHLLNSPTDPFNRQTLTESMLEPVPELKEQIQAWMREKQNSDHGGSSGGSSGGSSMWIQVRTMDGRQTHTVDSLSRLTKVEELRRKIQELFHVEPGLQRLFYRGKQMEDGHTLFDYEVRLNDTIQLLVRQS	–	~1
